Consider four substances from paper PMC4342241, “Antimicrobial Characterization of Site-Directed Mutagenesis of Porcine Beta Defensin 2” (PLoS ONE, 2015).

For one data set, the system named is porcine erythrocytes. The data set can be described thus: Hemolytic activity assay (release of hemoglobin). The settings on record: 0~80 μg/ml, 37°C for 1 h. It is filed as cell-based. As to the method:
The release of hemoglobin from porcine erythrocytes was used as a measure for the hemolytic activity of defensin as described before. 1mL fresh porcine blood was centrifuged at 1800 g for 10 min for collecting erythrocytes in the presence of heparin to prevent coagulation. The pellet was washed three times and re-suspended in saline solution at the proportion of 1:9. Subsequently, 100 μL erythrocyte solution was mixed with 100 μL of individual mutated defensins (final concentrations were 0~80 μg/ml) in polypropylene 96-well microtiter plates. After incubation at 37°C for 1 h, the plate was centrifuged at 1800 g for 5 min. 100 μL supernatant was transferred to a new 96-well plate separately and the absorbance was measured at 450 nm (reference 630 nm) using a microplate reader. The hemolysis ratio was calculated by comparison with the control samples containing no peptide or 1% Trition-100 [24–25].
Different concentrations of mutant pBD2 protein (100 μL) were separately incubated with erythrocytes (100 μL) at 37°C for 1 h. Less than 10% hemolysis ratio was found at all different concentrations of mpBD2-1~8 (data not shown). No significant differences were observed among different concentrations or among different mutants (P > 0.05).

For data set [1] the following is noted: cited from earlier work. An excerpt: In this report, eight amino acids of pBD2 were selected for substitution by arginine or lysine based on rational analysis. It was hypothesized that the major factor defining the antimicrobial activities of defensins was their cationicity or isoelectric point (pI) values. Indeed, the antimicrobial activities of defensins increased with their net charges. Harder et al reported that human beta defensin 3 (hBD3) had the strongest activity among hBD1, 2 and 3, because it had the most net positive charges (hBD1, 2 and 3 has +5, +6, and +11 net pos ...

Where no end group is shown, it is not given here.

Regarding Porcine β defensin 2 [pBD2], in the data set with porcine erythrocytes, the “hemolytic activity (in words)” value is given as “low hemolytic activities”.

With “hBD2: human beta defensin 2 (GIGDPVTCLKSGAICHPVFCPRRYKQIGTCGLPGTKCCKKP; ends and bridges not checked; cysteine pairing not given here; UniProt O15263 24-64, looked up)”, the net positive charges result in data set [1] was “+6”.

Consider “human beta defensin 3 (GIINTLQKYYCRVRGGRCAVLSCLPKEEQIGKCSTRGRKCCRRKK; ends and bridges not checked; cysteine pairing not given here; UniProt P81534 23-67, looked up) [hBD3]”, for which, in data set [1], the net positive charges entry is listed as “+11”.

Turning to “human β defensin 1 (DHYNCVSSGGQCLYSACPIFTKIQGTCYRGKAKCCK; ends and bridges not checked; cysteine pairing not given here; UniProt P60022 33-68, looked up) [hBD1]”, the net positive charges entry in data set [1] is given as “+5”.
